Measurements reported in US20200010567A1 (NEURIMMUNE, published 2020).

Legend:
[1] = target: T1, aggregated C9orf72 (GA)20 DPR protein peptide preparation (C-terminal amide); assay: indirect ELISA, coated preparation 5 ug/ml
T1 construct: also called aggregated (GA)20; amyloid-fibril like aggregated (GA)20
T1 peptide: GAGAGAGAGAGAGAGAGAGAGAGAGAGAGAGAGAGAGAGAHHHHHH
Protocol: (§1) 96-well microplates (Corning Incorporated, Corning, USA) were coated with monomeric and aggregated (GA)₂₀ DPR protein peptide preparations at a concentration of 5 μg/ml in coating buffer (15 mM Na₂CO₃, 35 mM NaHCO₃, pH 9.42). Non-specific binding sites were blocked for 1 h at room temperature with PBS/0.1% Tween®-20 containing 2% BSA (Sigma-Aldrich, Buchs, Switzerland). Primary antibodies were diluted to the indicated concentrations and incubated 1 h at room temperature, followed by incubation with a donkey anti-human IgG Fcγ-specific antibody conjugated with HRP (Jackson ImmunoResearch Laboratories, Inc., West Grove, USA). Binding was determined by measurement of HRP activity in a standard colorimetric assay. EC₅₀ values were estimated by non-linear regression using GraphPad Prism software (San Diego, USA).

[2] = target: T2, monomeric C9orf72 (GA)20 DPR protein peptide preparation (C-terminal amide); assay: indirect ELISA, coated preparation 5 ug/ml
T2 construct: also called monomeric (GA)20
T2 peptide: T1 peptide
Protocol: as §1

GA5: H-(GA)5HHHHHH-NH2 = target: T3, GA5: H-(GA)5HHHHHH-NH2; assay: indirect ELISA, coated His-tagged peptide
T3 peptide: H-GAGAGAGAGAHHHHHH-NH2
How it was run: (§2)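 Antibodies at graded concentrations bound for 1 h at room temperature to wells carrying 50 μg/ml His-tagged repeat peptide (pH 9.42 carbonate coating, 2% BSA block). Bound IgG read colorimetrically via HRP anti-human Fcγ; EC₅₀ estimated by non-linear regression.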

GA6: H-(GA)6HHHHHH-NH2 = target: T4, GA6: H-(GA)6HHHHHH-NH2; assay: indirect ELISA, coated His-tagged peptide; indirect ELISA, peptide coated directly on the plate
T4 peptide: H-GAGAGAGAGAGAHHHHHH-NH2
Excerpt: In brief, dipeptide repeat proteins were synthesized and purified by Schafer-N (Copenhagen, Denmark): GA₂₀: H-(GA)₂₀HHHHHH-NH₂; GA₁₀: H-(GA)₁₀HHHHHH-NH₂; GA₆: H-(GA)₆HHHHHH-NH₂; GA₅: H-(GA)₅HHHHHH-NH₂; GA₄: H-(GA)₄HHHHHH-NH₂; GA₃: H-(GA)₃HHHHHH-NH₂; GA₂: H-(GA)₂HHHHHH-NH₂; GP₂₀: H-(GP)₂₀HHHHHH-NH₂; GP₁₀: H-(GP)₁₀HHHHHH-NH₂; GP₆: H-(GP)₆HHHHHH-NH₂; GP₅: H-(GP)₅HHHHHH-NH₂; GP₄: H-(GP)₄HHHHHH-NH₂; GP₃: H-(GP)₃HHHHHH-NH₂; GP₂: H-(GP)₂HHHHHH-NH₂. GR₂₀: H-(GR)₂₀HHHHHH-NH₂; GR₁₀: H-(GR)₁₀HHHHHH-NH₂; GR₆: H-(GR)₆HHHHHH-NH₂; GR₅: H-(GR)₅HHHHHH-NH₂; GR₄: H-(GR)₄HHHHHH-NH₂; GR₃: H-(GR)₃HHHHHH-NH₂; GR₂: H-(GR)₂HHHHHH-NH₂; PA₂₀: H-(PA)₂₀HHHHHH-NH₂; PA₁₀: H-(PA)₁₀HHHHHH-NH₂; PA₆: H-(PA)₆HHHHHH-NH₂; PA₅: H-(PA)₅HHHHHH-NH₂; PA₄: H-(PA)₄HHHHHH-NH₂; PA₃: H-(PA)₃HHHHHH-NH₂; PA₂: H-(PA)₂HHHHHH-NH₂; PR₂₀: H-(PR)₂₀HHHHHH-NH₂; PR₁₀: H-(PR)₁₀HHHHHH-NH₂; PR₆: H-(PR)₆HHHHHH-NH₂; PR₅: H-(PR)₅HHHHHH-NH₂; PR₄: H-(PR)₄HHHHHH-NH₂; PR₃: H-(PR)₃HHHHHH-NH₂; PR₂: H-(PR)₂HHHHHH-NH₂. 96-well microplates (Corning Incorporated, Corning, USA) were coated with dipeptide repeat protein peptides at a concentration of 50 μg/ml in coating buffer (15 mM Na₂CO₃, 35 mM NaHCO₃, pH 9.42). Non-specific binding sites were blocked for 1 h at room temperature with PBS/0.1% Tween®-20 containing 2% BSA (Sigma-Aldrich, Buchs, Switzerland). Primary antibodies were diluted to the indicated concentrations and incubated 1 h at room temperature, followed by incubation with a donkey anti-human IgG Fcγ-specific antibody conjugated with HRP (Jackson ImmunoResearch Laboratories, Inc., West Grove, USA). Binding was determined by measurement of HRP activity in a standard colorimetric assay. EC₅₀ values were estimated by non-linear regression using GraphPad Prism software (San Diego, USA).

[3] = target: T5, (GA)15: H-CHHHHHH(GA)15-OH; assay: indirect ELISA, uncoupled peptide coated, antibody titrated [also D00013 FIG. 3D]
T5 construct: synthetic, not coupled to BSA; also called poly-GA DPR protein peptide
T5 peptide: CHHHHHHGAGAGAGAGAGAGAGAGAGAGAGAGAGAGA
Protocol: (§3) In brief, dipeptide repeat proteins were synthesized and purified by Schafer-N(Copenhagen, Denmark): (GA)₁₅: H-CHHHHHH(GA)₁₅-OH; (GP)₁₅: H-C(GP)₁₅-OH; (GR)₁₅: H-C(GR)₁₅-OH; (PA)₁₅: H-C(PA)₁₅-OH; (PR)₁₅: H—C(PR)₁₅-OH. DPR protein peptides were then conjugated via a bifunctional linker (SMCC) to bovine serum albumin (BSA). 96-well microplates (Corning Incorporated, Corning, USA) were coated with BSA-coupled or -uncoupled dipeptide repeat protein peptides at a concentration of either 5 μg/ml or 20 μg/ml in coating buffer (15 mM Na₂CO₃, 35 mM NaHCO₃, pH 9.42). Non-specific binding sites were blocked for 1 h at room temperature with PBS/0.1% Tween®-20 containing 2% BSA (Sigma-Aldrich, Buchs, Switzerland). Primary antibodies were diluted to the indicated concentrations and incubated 1 h at room temperature, followed by incubation with a donkey anti-human IgG Fcγ-specific antibody conjugated with HRP (Jackson ImmunoResearch Laboratories, Inc., West Grove, USA). Binding was determined by measurement of HRP activity in a standard colorimetric assay. EC₅₀ values were estimated by non-linear regression using GraphPad Prism software (San Diego, USA).

(GP)15: H-C(GP)15-OH = target: T6, (GP)15: H-C(GP)15-OH; assay: indirect ELISA, uncoupled peptide coated, antibody titrated [also D00014 FIG. 3H]
T6 construct: synthetic, not coupled to BSA; also called poly-GP DPR protein peptide
T6 peptide: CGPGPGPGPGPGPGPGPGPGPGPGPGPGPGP
Protocol: as §3

GP20: H-(GP)20HHHHHH-NH2 = target: T7, GP20: H-(GP)20HHHHHH-NH2 (C-terminal amide); assay: indirect ELISA, coated His-tagged peptide
T7 peptide: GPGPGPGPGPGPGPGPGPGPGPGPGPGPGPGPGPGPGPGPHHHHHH
How it was run: as §2

B1: NI-308.15O7 (antibody, V domains shown)
VH: QVQLVESGGGVVQPGRSLRLSCAASGFTFSNHAMHWVRQAPGKGLEWVAVISYDGENTYYADSIEGRFTISRDNFKNTLFLQMYSLTADDTAMYFCARGGRRGHFTSYYLDYWGQGTLVTVSS
VL: CDIQMTQSPSSLSASVGDRVTITCRASQNIDKYLNWYQQIPGKAPKLLIYAASSLHSGVPSRFSGSGSGTDFSLTISSLQPEDFAIYYCQQSYSSFRTFGQGTKLEIK
EC50 [1]: 0.78 nM
EC50 [2]: 0.53 nM
EC50 (GA5: H-(GA)5HHHHHH-NH2): > 150 nM
EC50 (GA6: H-(GA)6HHHHHH-NH2): 7.9 nM

B2: NI-308.28G1 (antibody, V domains shown)
VH: QVQLQESGPRLVKPSETLSLTCTVAGGSVNSYYWTWIQQSPGKGLEWLGRIYIAGRTNYNPSLTSRIALSVDTSRNQLSLKLTSVTAADTAIYYCARWGAESGDYYYGVDVWGPGTLVTVSS
VL: EIVMTQSPLSLPVTPGEPASISCKSSEGLLHSNGYTYLDWYLQKPGQAPQLLIFLASNRAAGVPDRFSGSGSGTDFTLKISRVEAEDVGVYYCMQAIQSPWTFGPGTKVEIK
notes: Recombinant complete human IgG1, kappa
EC50 (GA5: H-(GA)5HHHHHH-NH2): > 200 nM
EC50 (GA6: H-(GA)6HHHHHH-NH2): 6.3 nM
EC50 [3]: 2 nM

B3: NI-308.18F7 (antibody, V domains shown)
VH: QVQLQESGPGLVKPSETLSVTCTVSGGSINDYYWNWIRQPAGKGLEWIGRIYASGTINYNPSLQSRVTMSIDTSKNQFSLDLISVSAADTAVYYCARWGQVVGDYYYGMDVWGQGTTVTVSS
VL: EIVLTQSPLSLSVTPGEPASISCKSSQSLQHTNGYNYLDWYLLKPGQSPQLLIFLTSNRASGVPDRFSGSGSGTNFTLKISRVEAEDVGVYYCMEGIQLWTFGQGTKLEIK
notes: as for B2
EC50 [1]: 0.89 nM
EC50 [2]: 0.87 nM

B4: NI-308.46E9 (antibody, V domains shown)
VH: QVQLQESGPGLVKPSETLSLTCTVSGASISGSTYYWGWIRQPPGKGLEYIGRIYYSGSTYYNPSLKSRATISVDTSKNQLSLTLSSVTAADTAVYYCVRPFYAGSGNSPFDYWGQGTLVTVSS
VL: CEIVLTQSPATVSVSPGERATLSCRASQSVSTNLAWYQQKPGQPPRLLIYGASTRATGIPARFSGSGSGAEFTLTISSLQSEDFVVYYCQQYNNWPPAFGGGTKVEIK
notes: as for B2
EC50 ((GP)15: H-C(GP)15-OH): 22 nM
EC50 (GP20: H-(GP)20HHHHHH-NH2): 15.5 nM

B5: NI-308.5G2 (antibody, V domains shown)
VH: EVQLVQSGADLRNPGASVTVSCTASGYHFADNAINWLRQAPGQRLEWMGWINIYSGNTKYSQNFQGRVTFTRNTSASTAFMHLRSLRSEDTAVYFCARDPDSSGYYLPYFDYWGQGTLVTVSS
VL: DIQLTQSPDSLTLSLGERATINCKSSQSVFYNSNNKNYLAWYQQKPGQPPKLLMYWASTRESGVTDRFSGSGSGTDFTLTITNLQAEDVAVYYCQQFYSSPLTFGGGTKVEIK
notes: as for B2
EC50 (GP20: H-(GP)20HHHHHH-NH2): 0.47 nM
